In patent US20250276075A1, “METHODS OF TREATING AXL-EXPRESSING CANCERS WITH ANTI-AXL ANTIBODIES, ANTIBODY FRAGMENTS AND THEIR IMMUNOCONJUGATES” (BIOATLA, INC., priority 2020, published 2025):
Numbering of substitutions follows the chain as printed. Names and notes keep the numbering of the source.

T1: Axl (Homo sapiens, UniProt P30530)
T1 sequence (P30530 26-451 limits assumed): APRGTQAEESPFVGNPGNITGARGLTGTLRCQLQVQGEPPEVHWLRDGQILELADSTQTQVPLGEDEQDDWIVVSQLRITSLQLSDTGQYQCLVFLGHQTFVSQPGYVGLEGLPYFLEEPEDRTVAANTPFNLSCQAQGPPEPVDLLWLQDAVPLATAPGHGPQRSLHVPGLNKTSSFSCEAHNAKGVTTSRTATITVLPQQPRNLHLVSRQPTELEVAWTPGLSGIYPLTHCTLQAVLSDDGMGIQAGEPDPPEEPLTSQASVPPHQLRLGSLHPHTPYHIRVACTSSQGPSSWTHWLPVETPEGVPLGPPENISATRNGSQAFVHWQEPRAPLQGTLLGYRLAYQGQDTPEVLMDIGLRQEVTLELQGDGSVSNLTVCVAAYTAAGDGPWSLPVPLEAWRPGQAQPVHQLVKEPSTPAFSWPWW

B1: LC-F092D (antibody, V domains shown)
VH: EVQLVQSGAEVKKPGATVKISCKVSGYSFTGHTMNWIRQPPGKGLEWIGLIKPSNGGTSYNQKFKGRVTISADKSISTAYLQWSSLKASDTAMYYCAHGHYESYFAMDYWGQGTLVTVSS
VL: DIQMTQSPSSLSASVGDRVTITCKASQDVSSAVAWYQQKPGQAPRLLIYWASTRHTGVPSRFSGSGSGTEFTLTISSLQPDDFATYYCQEHDSTPLTFGQGTKVEIK
B2: LC-A034D (antibody, V domains shown)
VH: B1 VH
VL: B1 VL with A34D, D92F
B3: LC-V029D (antibody, V domains shown)
VH: B1 VH
VL: B1 VL with V29D, D92F
B4: LC-A032L (antibody, V domains shown)
VH: B1 VH
VL: B1 VL with A32L, D92F
B5: LC-H091Y (antibody, V domains shown)
VH: B1 VH
VL: B1 VL with H91Y, D92F
B6: LC-H091S (antibody, V domains shown)
VH: B1 VH
VL: B1 VL with H91S, D92F
B7: HC-W110H (antibody, V domains shown)
VH: B1 VH with W110H
VL: B1 VL with D92F
B8: LC-V029G (antibody, V domains shown)
VH: B1 VH
VL: B1 VL with V29G, D92F
B9: LC-A034N (antibody, V domains shown)
VH: B1 VH
VL: B1 VL with A34N, D92F
B10: LC-F092G (antibody, V domains shown)
VH: B1 VH
VL: B1 VL with D92G
B11: HC-E102N (antibody, V domains shown)
VH: B1 VH with E102N
VL: B1 VL with D92F

target: Axl (UniProt P30530); test: ELISA, 1:3 dilution; settings: not given

First: B1
Second: B2
The Affinity ELISA CPE mutant ratio (1:3, pH 6.0/7.4) of the first is lower: 2.97 for the first, 3 for the second.

Compared with B3, B4 is lower in Affinity ELISA CPE mutant ratio (1:3, pH 6.0/7.4): 2.88 for the first, 1.98 for the second.

First: B5
Second: B6
The Affinity ELISA CPE mutant ratio (1:3, pH 6.0/7.4) of the first is higher: 3.93 for the first, 1.76 for the second.

First: B7
Second: B8
The Affinity ELISA CPE mutant ratio (1:3, pH 6.0/7.4) of the first is higher: 7.99 for the first, 1.94 for the second.

Compared with B9, B10 is higher in Affinity ELISA CPE mutant ratio (1:3, pH 6.0/7.4): 2.63 for the first, 3.69 for the second.

B11 showed an Affinity ELISA CPE mutant ratio (1:3, pH 6.0/7.4) of 1.52.

target: Axl (UniProt P30530); test: ELISA, 1:9 dilution; settings: not given

First: B1
Second: B2
The Affinity ELISA CPE mutant ratio (1:9, pH 6.0/7.4) of the first is higher: 2.94 for the first, 2.6 for the second.

Compared with B3, B4 is lower in Affinity ELISA CPE mutant ratio (1:9, pH 6.0/7.4): 2.68 for the first, 2.27 for the second.

First: B5
Second: B6
The Affinity ELISA CPE mutant ratio (1:9, pH 6.0/7.4) of the first is higher: 5.13 for the first, 1.34 for the second.

Compared with B7, B8 is higher in Affinity ELISA CPE mutant ratio (1:9, pH 6.0/7.4): 0.932 for the first, 1.8 for the second.

First: B9
Second: B10
The Affinity ELISA CPE mutant ratio (1:9, pH 6.0/7.4) of the first is lower: 2.4 for the first, 4.76 for the second.

In the case of B11, the Affinity ELISA CPE mutant ratio (1:9, pH 6.0/7.4) is reported as 1.57.

target: T1, Axl; test: Affinity ELISA of CPE mutant antibodies for binding to Axl at pH 6.0 over pH 7.4; settings: heavy chain variable region mutants; 1:3 dilution
Source text: The DNA encoding the wild-type antibody was evolved to generate a mutant antibody library using Comprehensive Positional Evolution (CPE), which each position in the template antibody is randomized one at a time. Each mutant antibody in the library has only one single point mutation. The mutant antibodies in the library were generated by simultaneously screening for selective binding affinity to Axl at pH 6.0 over pH 7.4 by ELISA. Two mutant antibody dilutions were used: 1:3 and 1:9 dilutions. The mutant antibodies that have at least 1.5 ratio of binding affinity at pH 6.0 to at pH 7.4 under either 1:3 or 1:9 dilution are selected as conditionally active antibodies, with the single point mutations indicated in each of the heavy chain and light chain variable region (Tables 1 and 2).
A wild-type antibody to Axl was selected as the template antibody (with a heavy chain variable region of 063-hum10F10-HC in FIG. 1A and a light chain variable region of […]). The DNA encoding the wild-type antibody was evolved to generate a mutant antibody library using Comprehensive Positional Evolution (CPE), a method by which each position in the template antibody is randomized one at a time. Each mutant antibody in the library has only one single point mutation. The mutant antibodies in the library were generated by simultaneously screening for selective binding affinity to Axl at pH 6.0 over pH 7.4 as determined by ELISA.
Simultaneously, the expression level of the mutant antibodies was also optimized for the purpose of higher fields in a manufacturing process. The screening was done in serum using a FLAG tag because there were human antibodies in the serum which might cause false positives for the screening. The screening buffer was a carbonate buffer (Krebs buffer with ringer-standard buffer but different from PBS). […] Some of the selected mutant antibodies (scFv) were represented in FIG. 2 with their higher activity at pH 6.0 than at pH 7.4, while their activity ratios between pH 6.0 to pH 7.4 were at least 11 fold (FIG. 3).

Going from B7 to B11, the “Affinity ELISA CPE mutant ratio (1:3, pH 6.0/7.4)” value falls from 7.993 to 1.520.

same assay, conditions: heavy chain variable region mutants; 1:9 dilution

Going from B7 to B11, the “Affinity ELISA CPE mutant ratio (1:9, pH 6.0/7.4)” value rises from 0.932 to 1.567.

same assay, conditions: light chain variable region mutants; 1:3 dilution

First: B1
Second: B2
The “Affinity ELISA CPE mutant ratio (1:3, pH 6.0/7.4)” value of the first is lower: 2.969 for the first, 3.005 for the second.

Compared with B3, B4 is lower in “Affinity ELISA CPE mutant ratio (1:3, pH 6.0/7.4)” value: 2.882 for the first, 1.982 for the second.

Going from B5 to B6, the “Affinity ELISA CPE mutant ratio (1:3, pH 6.0/7.4)” value falls from 3.931 to 1.758.

Going from B8 to B9, the “Affinity ELISA CPE mutant ratio (1:3, pH 6.0/7.4)” value rises from 1.939 to 2.626.

With B10 the “Affinity ELISA CPE mutant ratio (1:3, pH 6.0/7.4)” value was 3.692.

same assay, conditions: light chain variable region mutants; 1:9 dilution

Compared with B1, B2 is lower in “Affinity ELISA CPE mutant ratio (1:9, pH 6.0/7.4)” value: 2.940 for the first, 2.599 for the second.

Compared with B3, B4 is lower in “Affinity ELISA CPE mutant ratio (1:9, pH 6.0/7.4)” value: 2.679 for the first, 2.272 for the second.

Compared with B5, B6 is lower in “Affinity ELISA CPE mutant ratio (1:9, pH 6.0/7.4)” value: 5.126 for the first, 1.336 for the second.

First: B8
Second: B9
The “Affinity ELISA CPE mutant ratio (1:9, pH 6.0/7.4)” value of the first is lower: 1.803 for the first, 2.403 for the second.

In the case of B10, the “Affinity ELISA CPE mutant ratio (1:9, pH 6.0/7.4)” value is reported as 4.758.
